# Source: paper PMC6006435
# Target: Ageratum yellow vein virus capsid protein (CP), in the geminate virus particle (Ageratum yellow vein virus)
# Assay: cryo-EM structure; single-particle cryo-EM of purified AYVV geminate particles, D5 symmetry, 3.3 Å; particles in 100 mM sodium phosphate pH 7.0; capsid holds the genomic ssDNA
substance,measurement,value
"Ageratum yellow vein virus capsid protein (CP), in the geminate virus particle (natural protein)",stoichiometry N,110
